Assay [1] deals with SRC (endogenous, colon cancer cell lines) (UniProt P12931 2-536). In words: YAP1 immunoprecipitation from colon cancer cell lysate (SW480), immunoblot. The protocol:
(§1) The indicated colon cancer cell lines were infected with shRNAs targeting YES1 and proliferation (A) or anchorage independent growth (B) was assessed. The results were normalized to cells infected with a control shRNA targeting LacZ. (C) Subcutaneous HCT116 tumors expressing a doxycycline inducible YES1 shRNA were implanted into the cecum of nude mice and after 48 h were treated or not with doxycycline. Tumors were extracted three weeks post doxycycline treatment. (D) YES1 protein levels of tumors in (C). (E) YAP1 was immunoprecipitated from SW480 lystaes and following immunobloting the membrane was stained with the indicated antibodies. […] Following V5 IP the membrane was blotted with a phosphotyrosine antibody. […] (H) Proliferation or anchorage independent growth (I) of Hutu80 cell lines expressing YAP1 Y357F and infected with shRNAs targeting YAP1. (J) YAP1 protein levels of cells in (H) and (I).
A general note: Immunoblotting shows a protein as a band on a membrane.

The target of the next assay is FYN (UniProt P06241 2-537, limits assumed). The description is as above. The protocol:
as §1

FYN, sequence (P06241 2-537 limits assumed): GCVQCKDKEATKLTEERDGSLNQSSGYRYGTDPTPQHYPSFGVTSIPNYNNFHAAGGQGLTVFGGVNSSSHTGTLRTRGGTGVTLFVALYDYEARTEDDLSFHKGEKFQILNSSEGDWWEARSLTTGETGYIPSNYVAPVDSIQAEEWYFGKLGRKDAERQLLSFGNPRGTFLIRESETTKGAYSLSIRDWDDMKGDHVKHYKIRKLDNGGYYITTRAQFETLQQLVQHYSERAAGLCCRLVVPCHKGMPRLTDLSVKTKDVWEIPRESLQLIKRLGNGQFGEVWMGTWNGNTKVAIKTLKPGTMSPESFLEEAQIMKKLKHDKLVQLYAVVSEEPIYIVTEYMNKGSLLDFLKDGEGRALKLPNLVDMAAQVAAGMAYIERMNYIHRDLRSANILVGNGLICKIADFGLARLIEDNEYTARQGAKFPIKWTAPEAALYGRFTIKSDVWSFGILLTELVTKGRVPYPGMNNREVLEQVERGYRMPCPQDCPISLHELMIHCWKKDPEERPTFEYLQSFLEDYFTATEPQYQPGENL

B1: YAP1 (65 kd Yes-associated protein) (other, UniProt P46937-3 1-454, looked up)
chain: MDPGQQPPPQPAPQGQGQPPSQPPQGQGPPSGPGQPAPAATQAAPQAPPAGHQIVHVRGDSETDLEALFNAVMNPKTANVPQTVPMRLRKLPDSFFKPPEPKSHSRQASTDAGTAGALTPQHVRAHSSPASLQLGAVSPGTLTPTGVVSGPAATPTAQHLRQSSFEIPDDVPLPAGWEMAKTSSGQRYFLNHIDQTTTWQDPRKAMLSQMNVTAPTSPPVQQNMMNSASAMNQRISQSAPVKQPPPLAPQSPQGGVMGGSNSNQQQQMRLQQLQMEKERLRLKQQELLRQVRPQELALRSQLPTLEQDGGTQNPVSSPGMSQELRTMTTNSSDPFLNSGTYHSRDESTDSGLSMSSYSVPRTPDDFLNSVDEMDTGDTINQSTLPSQQNRFPDYLEAIPGTNVDLGTLEGDGMNIEGEELMPSLQEALSSDILNDMESVLAATKLDKESFLTWL
notes: Endogenous protein in the co-immunoprecipitations from colon cancer cell lysates; also called WT YAP1
As for B1, the binding result (in assay [1]; in the assay with FYN) was “no binding” each time.

Values taken from US20240398804A1 (Dana-Farber, published 2024).
